# Target: recombinant human IFN-γ (human)
# Experiment: cell-based or functional assay
# Sequence of recombinant human IFN-γ (human) (P01579 24-161): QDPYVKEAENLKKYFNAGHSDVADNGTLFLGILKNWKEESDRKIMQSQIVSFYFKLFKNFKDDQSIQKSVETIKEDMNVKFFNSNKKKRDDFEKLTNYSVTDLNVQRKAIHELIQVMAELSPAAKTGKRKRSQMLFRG
binder,measurement,value
"EI-001 (2A6Q), human monoclonal anti-IFN-γ antibody (antibody, human IgG1, lambda, V domains shown) VH: EVQLVESGGGLVKPGDSLTVSCVASGFTFSNYFIHWVRQAPGKGLEWVATISGRTKYMFYSDSLRGRFTVSRDNAQNSVYLHMSSLRGEDTALYYCVRGYDHSDSNSAADLLHWGRGTLVTVSS VL: NFMLTQPLSVSGYPGKTIVISCVRSSGSVASHYVQWFQQRPGSAPAMVIYEDSHRPSGIPDRFSGSVDASSNSASLTISGLKTEDEADYFCQSYYGNNQVLFGGGTKLTVLG","EC50 of EI-001 restoring viability of human primary melanocytes cultured with 30 ng/mL IFN-γ (CellTiter-Glo, 72 hrs)",0.00521 µg/mL
same,"EC50 restoring melanogenesis (melanin content, absorbance at 470 nm) of human primary melanocytes cultured with 20 ng/mL IFN-γ for 7 days",0.129 µg/mL

# — patent US20250320288A1 (ELIXIRON IMMUNOTHERAPEUTICS HONG KONG, published 2025)
